B1: RalBP1-associated Eps domain-containing protein 2 (Homo sapiens), Q8NFH8 (parent)
chain: MEAAAAAAAAAAAAAAAGGGCGSGPPPLLLSEGEQQCYSELFARCAGAAGGGPGSGPPEAARVAPGTATAAAGPVADLFRASQLPAETLHQITELCGAKRVGYFGPTQFYIALKLIAAAQSGLPVRIESIKCELPLPRFMMSKNDGEIRFGNPAELHGTKVQIPYLTTEKNSFKRMDDEDKQQETQSPTMSPLASPPSSPPHYQRVPLSHGYSKLRSSAEQMHPAPYEARQPLVQPEGSSSGGPGTKPLRHQASLIRSFSVERELQDNSSYPDEPWRITEEQREYYVNQFRSLQPDPSSFISGSVAKNFFTKSKLSIPELSYIWELSDADCDGALTLPEFCAAFHLIVARKNGYPLPEGLPPTLQPEYLQAAFPKPKWDCQLFDSYSESLPANQQPRDLNRMEKTSVKDMADLPVPNQDVTSDDKQALKSTINEALPKDVSEDPATPKDSNSLKARPRSRSYSSTSIEEAMKRGEDPPTPPPRPQKTHSRASSLDLNKVFQPSVPATKSGLLPPPPALPPRPCPSQSEQVSEAELLPQLSRAPSQAAESSPAKKDVLYSQPPSKPIRRKFRPENQATENQEPSTAASGPASAATMKPHPTVQKQSSKQKKAIQTAIRKNKEANAVLARLNSELQQQLKEVHQERIALENQLEQLRPVTVL
partner: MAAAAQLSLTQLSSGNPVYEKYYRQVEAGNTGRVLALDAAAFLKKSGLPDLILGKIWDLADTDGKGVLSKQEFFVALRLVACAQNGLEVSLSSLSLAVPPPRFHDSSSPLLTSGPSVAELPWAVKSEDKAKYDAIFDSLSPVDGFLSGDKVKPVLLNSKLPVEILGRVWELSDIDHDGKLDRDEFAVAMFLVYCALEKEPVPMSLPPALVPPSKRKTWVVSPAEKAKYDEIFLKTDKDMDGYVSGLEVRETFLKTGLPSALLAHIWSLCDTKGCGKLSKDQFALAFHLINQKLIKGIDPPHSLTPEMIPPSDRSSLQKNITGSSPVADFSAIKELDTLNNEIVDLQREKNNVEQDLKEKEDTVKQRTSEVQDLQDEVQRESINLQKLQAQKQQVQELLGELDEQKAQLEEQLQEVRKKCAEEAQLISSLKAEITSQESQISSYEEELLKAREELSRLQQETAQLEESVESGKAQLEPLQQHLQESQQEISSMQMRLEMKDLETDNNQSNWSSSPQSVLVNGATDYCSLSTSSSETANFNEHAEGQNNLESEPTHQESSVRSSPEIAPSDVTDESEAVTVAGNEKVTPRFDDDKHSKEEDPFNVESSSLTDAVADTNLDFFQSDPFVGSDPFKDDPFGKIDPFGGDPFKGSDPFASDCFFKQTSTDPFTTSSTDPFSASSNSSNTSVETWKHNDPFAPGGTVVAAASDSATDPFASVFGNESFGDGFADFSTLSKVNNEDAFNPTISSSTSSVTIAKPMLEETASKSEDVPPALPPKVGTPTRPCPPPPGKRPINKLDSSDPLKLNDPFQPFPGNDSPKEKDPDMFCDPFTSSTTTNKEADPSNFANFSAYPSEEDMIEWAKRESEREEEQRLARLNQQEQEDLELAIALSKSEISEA

Legend:
Details in all cases: with eps15_mouse Eps15, P42567
[1] = variants of: B1
[2] = variants of: B1; remark: listed apart in the source
[3] = variants of: B1; remark: listed apart in the source
[4] = variants of: B1; remark: listed apart in the source

| Variant | effect of a mutation on the interaction [1] | effect of a mutation on the interaction [2] | effect of a mutation on the interaction [3] | effect of a mutation on the interaction [4] |
| --- | --- | --- | --- | --- |
| W324A | decreasing interaction |  |  |  |
| K312A |  | decreasing interaction | disrupting interaction |  |
| K351A |  |  | disrupting interaction | decreasing interaction |

Reference: IntAct's records for PubMed 18154663
